In patent US20150344570A1 (published 2015):

B1: GpH7-A5/GpH7-B3 variant P271_20W/GpL16-k0 (antibody, human IgG1, kappa)
heavy 1: not shown
heavy 2: not shown
light: DIVMTQSPLSLPVTPGEPASISCQASESLVHSNRNTYLHWYLQKPGQSPQLLIYKVSNRFSGVPDRFSGSGSGTDFTLKISRVEAEDVGVYYCSQNTHVPPTFGQGTKVEIERTVAAPSVFIFPPSDEQLKSGTASVVCLLNNFYPREAKVQWKVDNALQSGNSQESVTEQDSKDSTYSLSSTLTLSKADYEKHKVYACEVTHQGLSSPVTKSFNRGEC
notes: also called He Ab P271_20W
B2: GpH7-A5/GpH7-B3 variant S298_06M/GpL16-k0 (antibody, human IgG1, kappa)
heavy 1: not shown
heavy 2: not shown
light: B1 light
notes: also called He Ab S298_06M
B3: GpH7-A5/GpH7-B3 variant S324_02A/GpL16-k0 (antibody, human IgG1, kappa)
heavy 1: not shown
heavy 2: not shown
light: B1 light
notes: also called He Ab S324_02A
B4: GpH7-A5/GpH7-B3 variant S298_14T/GpL16-k0 (antibody, human IgG1, kappa)
heavy 1: not shown
heavy 2: not shown
light: B1 light
notes: also called He Ab S298_14T
B5: GpH7-A5/GpH7-B3 variant S239_09D/GpL16-k0 (antibody, human IgG1, kappa)
heavy 1: not shown
heavy 2: not shown
light: B1 light
notes: also called He Ab S239_09D
B6: GpH7-A5/GpH7-B3 variant S298_01G/GpL16-k0 (antibody, human IgG1, kappa)
heavy 1: not shown
heavy 2: not shown
light: B1 light
notes: also called He Ab S298_01G
B7: GpH7-A5/GpH7-B3 variant Q295_13S/GpL16-k0 (antibody, human IgG1, kappa)
heavy 1: not shown
heavy 2: not shown
light: B1 light
notes: also called He Ab Q295_13S
B8: GpH7-A5/GpH7-B3 variant S267_16H/GpL16-k0 (antibody, human IgG1, kappa)
heavy 1: not shown
heavy 2: not shown
light: B1 light
notes: also called He Ab S267_16H
B9: GpH7-A5/GpH7-B3 variant Q295_14T/GpL16-k0 (antibody, human IgG1, kappa)
heavy 1: not shown
heavy 2: not shown
light: B1 light
notes: also called He Ab Q295_14T
B10: GpH7-A5/GpH7-B3 variant Q295_02A/GpL16-k0 (antibody, human IgG1, kappa)
heavy 1: not shown
heavy 2: not shown
light: B1 light
notes: also called He Ab Q295_02A
B11: GpH7-A5/GpH7-B3 variant S298_16H/GpL16-k0 (antibody, human IgG1, kappa)
heavy 1: not shown
heavy 2: not shown
light: B1 light
notes: also called He Ab S298_16H
B12: GpH7-A5/GpH7-B3 variant S298_04F/GpL16-k0 (antibody, human IgG1, kappa)
heavy 1: not shown
heavy 2: not shown
light: B1 light
notes: also called He Ab S298_04F
B13: GpH7-A5/GpH7-B3 variant S298_03V/GpL16-k0 (antibody, human IgG1, kappa)
heavy 1: not shown
heavy 2: not shown
light: B1 light
notes: also called He Ab S298_03V
B14: GpH7-A5/GpH7-B3 variant S298_10E/GpL16-k0 (antibody, human IgG1, kappa)
heavy 1: not shown
heavy 2: not shown
light: B1 light
notes: also called He Ab S298_10E
B15: GpH7-A5/GpH7-B3 variant S298_18N/GpL16-k0 (antibody, human IgG1, kappa)
heavy 1: not shown
heavy 2: not shown
light: B1 light
notes: also called He Ab S298_18N
B16: GpH7-A5/GpH7-B3 variant S298_20W/GpL16-k0 (antibody, human IgG1, kappa)
heavy 1: not shown
heavy 2: not shown
light: B1 light
notes: also called He Ab S298_20W
B17: GpH7-A5/GpH7-B3 variant S324_11K/GpL16-k0 (antibody, human IgG1, kappa)
heavy 1: not shown
heavy 2: not shown
light: B1 light
notes: also called He Ab S324_11K
B18: GpH7-A5/GpH7-B3 variant Q295_07I/GpL16-k0 (antibody, human IgG1, kappa)
heavy 1: not shown
heavy 2: not shown
light: B1 light
notes: also called He Ab Q295_07I
B19: GpH7-A5/GpH7-B3 variant S324_16H/GpL16-k0 (antibody, human IgG1, kappa)
heavy 1: not shown
heavy 2: not shown
light: B1 light
notes: also called He Ab S324_16H
B20: GpH7-A5/GpH7-B3 variant S324_08L/GpL16-k0 (antibody, human IgG1, kappa)
heavy 1: not shown
heavy 2: not shown
light: B1 light
notes: also called He Ab S324_08L
B21: GpH7-A5/GpH7-B3 variant S298_12R/GpL16-k0 (antibody, human IgG1, kappa)
heavy 1: not shown
heavy 2: not shown
light: B1 light
notes: also called He Ab S298_12R
B22: GpH7-A5/GpH7-B3 variant Q295_03V/GpL16-k0 (antibody, human IgG1, kappa)
heavy 1: not shown
heavy 2: not shown
light: B1 light
notes: also called He Ab Q295_03V
B23: GpH7-A5/GpH7-B3 variant S298_08L/GpL16-k0 (antibody, human IgG1, kappa)
heavy 1: not shown
heavy 2: not shown
light: B1 light
notes: also called He Ab S298_08L
B24: GpH7-A5/GpH7-B3 variant S298_02A/GpL16-k0 (antibody, human IgG1, kappa)
heavy 1: not shown
heavy 2: not shown
light: B1 light
notes: also called He Ab S298_02A; GpH7-A5/GpH7-B3-15-02A/GpL16-k0
B25: GpH7-A5/GpH7-B3 variant S239_19Q/GpL16-k0 (antibody, human IgG1, kappa)
heavy 1: not shown
heavy 2: not shown
light: B1 light
notes: also called He Ab S239_19Q
B26: GpH7-A5/GpH7-B3 variant Q295_08L/GpL16-k0 (antibody, human IgG1, kappa)
heavy 1: not shown
heavy 2: not shown
light: B1 light
notes: also called He Ab Q295_08L
B27: GpH7-A5/GpH7-B3 variant S298_19Q/GpL16-k0 (antibody, human IgG1, kappa)
heavy 1: not shown
heavy 2: not shown
light: B1 light
notes: also called He Ab S298_19Q
B28: GpH7-A5/GpH7-B3 variant S239_18N/GpL16-k0 (antibody, human IgG1, kappa)
heavy 1: not shown
heavy 2: not shown
light: B1 light
notes: also called He Ab S239_18N
B29: GpH7-A5/GpH7-B3 variant S267_03V/GpL16-k0 (antibody, human IgG1, kappa)
heavy 1: not shown
heavy 2: not shown
light: B1 light
notes: also called He Ab S267_03V
B30: GpH7-A5/GpH7-B3 variant S239_14T/GpL16-k0 (antibody, human IgG1, kappa)
heavy 1: not shown
heavy 2: not shown
light: B1 light
notes: also called He Ab S239_14T
B31: GpH7-A5/GpH7-B3 variant S324_14T/GpL16-k0 (antibody, human IgG1, kappa)
heavy 1: not shown
heavy 2: not shown
light: B1 light
notes: also called He Ab S324_14T
B32: GpH7-A5/GpH7-B3 variant S324_15Y/GpL16-k0 (antibody, human IgG1, kappa)
heavy 1: not shown
heavy 2: not shown
light: B1 light
notes: also called He Ab S324_15Y
B33: GpH7-A5/GpH7-B3 variant S324_03V/GpL16-k0 (antibody, human IgG1, kappa)
heavy 1: not shown
heavy 2: not shown
light: B1 light
notes: also called He Ab S324_03V
B34: GpH7-A5/GpH7-B3 variant Q295_04F/GpL16-k0 (antibody, human IgG1, kappa)
heavy 1: not shown
heavy 2: not shown
light: B1 light
notes: also called He Ab Q295_04F
B35: GpH7-A5/GpH7-B3 variant S267_01G/GpL16-k0 (antibody, human IgG1, kappa)
heavy 1: not shown
heavy 2: not shown
light: B1 light
notes: also called He Ab S267_01G
B36: GpH7-A5/GpH7-B3 variant S298_15Y/GpL16-k0 (antibody, human IgG1, kappa)
heavy 1: not shown
heavy 2: not shown
light: B1 light
notes: also called He Ab S298_15Y
B37: GpH7-A5/GpH7-B3 variant S267_02A/GpL16-k0 (antibody, human IgG1, kappa)
heavy 1: not shown
heavy 2: not shown
light: B1 light
notes: also called He Ab S267_02A
B38: GpH7-A5/GpH7-B3 variant S267_08L/GpL16-k0 (antibody, human IgG1, kappa)
heavy 1: not shown
heavy 2: not shown
light: B1 light
notes: also called He Ab S267_08L
B39: GpH7-A5/GpH7-B3 variant S267_09D/GpL16-k0 (antibody, human IgG1, kappa)
heavy 1: not shown
heavy 2: not shown
light: B1 light
notes: also called He Ab S267_09D
B40: GpH7-A5/GpH7-B3 variant S239_01G/GpL16-k0 (antibody, human IgG1, kappa)
heavy 1: not shown
heavy 2: not shown
light: B1 light
notes: also called He Ab S239_01G
B41: GpH7-A5/GpH7-B3 variant S298_07I/GpL16-k0 (antibody, human IgG1, kappa)
heavy 1: not shown
heavy 2: not shown
light: B1 light
notes: also called He Ab S298_07I
B42: GpH7-A5/GpH7-B3 variant Q295_05P/GpL16-k0 (antibody, human IgG1, kappa)
heavy 1: not shown
heavy 2: not shown
light: B1 light
notes: also called He Ab Q295_05P
B43: GpH7-A5/GpH7-B3 variant Q295_18N/GpL16-k0 (antibody, human IgG1, kappa)
heavy 1: not shown
heavy 2: not shown
light: B1 light
notes: also called He Ab Q295_18N
B44: GpH7-A5/GpH7-B3 variant S324_12R/GpL16-k0 (antibody, human IgG1, kappa)
heavy 1: not shown
heavy 2: not shown
light: B1 light
notes: also called He Ab S324_12R

Molecular target: T1, FcγRIa (human, UniProt P12314 16-292)
T1 construct: extracellular domain; Soluble extracellular domain expressed in FreeStyle293 cells, used as analyte in Biacore; also called FcgRI; 1a; not shown: His tag attached to the C terminus
Experiment: SPR (Biacore); He Ab vs HeCon Ab GpH7-A5/GpH7-B3/GpL16-k0
Experimental: Analysis of interaction between objective antibody and the FcγR was carried out using Biacore T100 (GE Healthcare). HBS-EP+ (GE Healthcare) was used as the running buffer, and the measurement temperature was set to 25° C. Chips produced by immobilizing the antigen peptide by the amine coupling method to a Series S Sencor Chip CM5 (GE Healthcare), or alternatively, chips produced by allowing preliminarily biotinylated antigen peptides to interact with and immobilize onto a Series S Sensor Chip SA (certified) (GE Healthcare) were used. Antibodies of interest were captured onto an antigen peptide-immobilized chip, and allowed to interact to each FcγR diluted with running buffer. To regenerate and repeatedly use the chip, the antibodies captured on the chip were washed off by reacting 10 mM glycine-HCl, pH 1.5.

T1 sequence (P12314 16-292): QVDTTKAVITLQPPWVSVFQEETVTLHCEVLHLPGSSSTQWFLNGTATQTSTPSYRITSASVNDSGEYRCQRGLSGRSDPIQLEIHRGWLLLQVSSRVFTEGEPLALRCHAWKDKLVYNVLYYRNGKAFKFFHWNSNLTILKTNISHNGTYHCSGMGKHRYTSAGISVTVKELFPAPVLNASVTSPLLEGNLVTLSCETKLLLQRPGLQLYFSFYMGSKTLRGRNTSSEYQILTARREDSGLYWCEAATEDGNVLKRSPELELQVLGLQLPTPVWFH

Row | Binder | He/Con_1a
1 | B1 | 103 relative binding, control = 100
2 | B2 | 114 relative binding, control = 100
3 | B3 | 103 relative binding, control = 100
4 | B4 | 107 relative binding, control = 100
5 | B5 | 101 relative binding, control = 100
6 | B6 | 104 relative binding, control = 100
7 | B7 | 102 relative binding, control = 100
8 | B8 | 100 relative binding, control = 100
9 | B9 | 103 relative binding, control = 100
10 | B10 | 104 relative binding, control = 100
11 | B11 | 109 relative binding, control = 100
12 | B12 | 109 relative binding, control = 100
13 | B13 | 110 relative binding, control = 100
14 | B14 | 108 relative binding, control = 100
15 | B15 | 108 relative binding, control = 100
16 | B16 | 104 relative binding, control = 100
17 | B17 | 102 relative binding, control = 100
18 | B18 | 103 relative binding, control = 100
19 | B19 | 113 relative binding, control = 100
20 | B20 | 103 relative binding, control = 100
21 | B21 | 109 relative binding, control = 100
22 | B22 | 104 relative binding, control = 100

Row | Binder | He/Con_1a
23 | B23 | 107 relative binding, control = 100
24 | B24 | 107 relative binding, control = 100
25 | B25 | 101 relative binding, control = 100
26 | B26 | 105 relative binding, control = 100
27 | B27 | 109 relative binding, control = 100
28 | B28 | 101 relative binding, control = 100
29 | B29 | 106 relative binding, control = 100
30 | B30 | 101 relative binding, control = 100
31 | B31 | 121 relative binding, control = 100
32 | B32 | 114 relative binding, control = 100
33 | B33 | 104 relative binding, control = 100
34 | B34 | 102 relative binding, control = 100
35 | B35 | 103 relative binding, control = 100
36 | B36 | 107 relative binding, control = 100
37 | B37 | 109 relative binding, control = 100
38 | B38 | 101 relative binding, control = 100
39 | B39 | 110 relative binding, control = 100
40 | B40 | 101 relative binding, control = 100
41 | B41 | 107 relative binding, control = 100
42 | B42 | 103 relative binding, control = 100
43 | B43 | 102 relative binding, control = 100
44 | B44 | 102 relative binding, control = 100
